Laboratory results reported in US20190389973A1 (Y BIOLOGICS, published 2019).

Key:
VEGFA = experiment: ELISA on coated VEGFA
Procedure: (§1) The affinity of Fv2mabs consisting of the tandem Fv combinations of anti-TNF-α and anti-VEGFA; and anti-TNF-α and anti-IL17A was measured by using ELISA method. Antigens such as TNF-α, VEGFA, and IL-17A, were fixed on an immune-plate at a concentration of 100 ng/well (96 well) by using pH 7.4 PBS as a coating buffer through a reaction at 4° C. overnight. Each well was once washed with PBST 200 μl, and then a surface blocking reaction was performed at room temperature with 5% skim milk for one to two hours. Subsequently, after washing each well twice with PBST 200 μl, a serial dilution was performed with an appropriate bispecific Fv2mab to measure and a control parental antibody from an appropriate concentration in an interval of ½ to ⅕ for a reaction at room temperature for one to two hours. Then, each well was washed three times with PBST 200 μl to remove unbound antibodies, and a dilution was performed with horseradish peroxidase (HRP)-conjugated anti-human-Fc-HRP (Millipore, USA) at a ratio of 1:3000 for a reaction at room temperature for one hour. Then, each well was washed three times with PBST 200 μl to remove unbound detection antibodies. A color reaction of HRP was induced by using TMB solution (GEhealthcare, USA) in a volume of […], and the reaction was terminated by using a stop solution (2.5 M H2SO4, 100 μl/well).

TNF-α = biological target: T1, TNF-α (UniProt P01375 77-233); experiment: ELISA on coated TNF-α
T1 construct: Soluble antigen used as analyte in the OCTET assay and coated in ELISA; also called TNF-a
Procedure: as §1

T1 sequence (P01375 77-233 limits assumed): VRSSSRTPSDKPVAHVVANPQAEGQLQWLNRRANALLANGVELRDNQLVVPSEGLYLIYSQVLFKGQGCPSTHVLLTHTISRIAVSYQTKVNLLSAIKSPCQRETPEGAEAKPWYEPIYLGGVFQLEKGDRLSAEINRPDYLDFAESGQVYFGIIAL
VEGFA, sequence (P15692 whole entry): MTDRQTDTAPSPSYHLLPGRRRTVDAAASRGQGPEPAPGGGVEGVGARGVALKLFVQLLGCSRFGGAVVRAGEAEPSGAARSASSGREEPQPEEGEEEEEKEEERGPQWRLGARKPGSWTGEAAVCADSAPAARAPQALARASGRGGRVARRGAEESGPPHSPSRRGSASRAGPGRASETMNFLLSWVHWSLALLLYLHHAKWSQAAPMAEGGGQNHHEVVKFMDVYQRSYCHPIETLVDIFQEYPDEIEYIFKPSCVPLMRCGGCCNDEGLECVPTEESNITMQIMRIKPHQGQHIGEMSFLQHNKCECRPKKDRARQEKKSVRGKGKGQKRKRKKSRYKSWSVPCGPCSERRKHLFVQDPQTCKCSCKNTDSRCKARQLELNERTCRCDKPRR

- EC50 (read off the curve) (VEGFA): ~0.3 nM
- binding result (TNF-α): binds
B1: anti-VEGFA AB (antibody, V domains shown)
VH: QVTLKESGPTMVKPTQTLTLTCTFSGFSLSTSGVAVGWIRQPPGQALEWLALIYWDNDKRYSPSLKNRLTVAKDTSKSQVVLTMTNMDPMDTATYYCAHGDGWLFDFWGQGTLVTVSS
VL: QPVLTQPPSVSGAPGQRVTISCTGSNSNIGAGHDVHWYQQLPGAAPKVVIYGNTNRASGVPERFSGSKSATSASLAITGLQAEDEADYYCQSYDNSLSGYVFGTGTKVTVL
notes: The sheet calls it 'parantal antibody'; also called anti-VEGFA antibody; F6 (in-house)
